The record followed here is PMC3182237, “Downregulation of the Hsp90 System Causes Defects in Muscle Cells of Caenorhabditis Elegans” (PLoS ONE, 2011).

Common to all, as to conditions: both partners purified
The target in assay [1] is T1, E292K-DAF-21 (C. elegans, UniProt Q18688 1-702, E292K).
T1 construct: DAF-21, the Hsp90 homolog of Caenorhabditis elegans, with the point mutation of the allele daf-21(p673); The mutation occurs in the nematode strain JT6130 (daf-21(p673)); The recombinant variant was made from the daf-21 cDNA; also called E292K variant; DAF-21 of daf-21(p673), strain JT6130; source: E. coli BL21-CodonPlus (DE3)-RIL, purified (HisTrap FF, ResourceQ, Superdex SEC); not shown: His …
Kind of assay: AUC; sedimentation velocity with fluorescence detection; fluorescein-labelled cofactor 300 nM, DAF-21 or variant 6 µM; no nucleotide; 20 to 22°C, 42.000 r.p.m.; dc/dt analysis.

The target in assay [2] is T2, DAF-21 (C. elegans, UniProt Q18688 1-702).
T2 construct: DAF-21, the Hsp90 homolog of Caenorhabditis elegans; also called Hsp90; wt-DAF-21; source: E. coli BL21-CodonPlus (DE3)-RIL, purified (HisTrap FF, ResourceQ, Superdex SEC); not shown: His tag (from the vector pET28b)
The description is as above.

In assay [3] the target is T1, E292K-DAF-21. Kind of assay: AUC; sedimentation velocity with fluorescence detection; fluorescein-labelled cofactor 300 nM, DAF-21 or variant 6 µM; with 4 mM AMP-PNP; 20 to 22°C, 42.000 r.p.m.; dc/dt analysis.
In assay [4] the target is T2, DAF-21. Described as above.

B1: STI-1, fluorescein-labelled (natural protein, C. elegans, UniProt O16259 1-320, looked up)
chain: MTDAAIAEKDLGNAAYKQKDFEKAHVHYDKAIELDPSNITFYNNKAAVYFEEKKFAECVQFCEKAVEVGRETRADYKLIAKAMSRAGNAFQKQNDLSLAVQWFHRSLSEFRDPELVKKVKELEKQLKAAERLAYINPELAQEEKNKGNEYFKKGDYPTAMRHYNEAVKRDPENAILYSNRAACLTKLMEFQRALDDCDTCIRLDSKFIKGYIRKAACLVAMREWSKAQRAYEDALQVDPSNEEAREGVRNCLRSNDEDPEKAKERSLADPEVQEILRDPGMRMILEQMSNDPGAVREHLKNPEIFQKLMKLRDAGVIQMR
modifications: 5-carboxyfluorescein (N-succinimidyl ester) at lysine residues
notes: STI-1, TPR-containing cofactor of Hsp90 in Caenorhabditis elegans; also called labelled STI-1; source: E. coli BL21-CodonPlus (DE3)-RIL, purified (HisTrap FF, ResourceQ, Superdex SEC); not shown: His tag (from the vector pET28b)
With B1, the binding result in the assay with E292K-DAF-21 [1] and with DAF-21 [2] was “binds” each time.

B2: Cep23 (ZC395.10), fluorescein-labelled (natural protein, C. elegans, UniProt Q23280 1-175, looked up)
chain: MAKQPTVLWAQRESLVYLTIEVDEAKIEELKGEGNKLHFQGSSKTDKYEATLEFFDEIDPASVKHTGSSTRVVEITVQKKTPAWWPRLLQNKGKVHWLKVDFGKWKDEDEDDEAEDAGAGIGGGMANGFDLNQYMSQMGGAGGADFGGLEDDEEDDDMPDLEDNEEEEGKNGTRA
modifications: 5-carboxyfluorescein (N-succinimidyl ester) at lysine residues
notes: Cep23, the p23 cofactor of Hsp90 in Caenorhabditis elegans (ZC395.10); also called Labelled Cep23; source: E. coli BL21-CodonPlus (DE3)-RIL, purified (HisTrap FF, ResourceQ, Superdex SEC); not shown: His tag (from the vector pET28b)
For B2, the binding result with E292K-DAF-21 [3] and with DAF-21 [4] was “binds” throughout.
